# Key:
# [1] = test system: C179WT (hCIZ1 C-terminal fragment) (Homo sapiens); assay: EMSA; settings: 0.66 nM RNA; yeast tRNA 0.1 mg/ml; 10 mM Tris-HCl pH 7, 30 mM NaCl, 2.5 mM MgCl2, 0.1% IGEPAL CA-630, 0.1 mg/ml yeast tRNA, 1.5% RNaseOUT, 0.2 mM EDTA, 0.2 mM DTT, 30 C 20 min; 0.8% agarose/TBE …
# [2] = target: human CIZ1-C179Δtail (human) (UniProt Q9ULV3); assay: SEC-MALS; SEC-MALLS; 100 µl of >1 mg/ml purified protein, Superdex S200 10/300 GL, cleavage buffer (50 mM Tris-HCl pH 7, 150 mM NaCl, 1 mM EDTA, 1 mM DTT), 0.5 ml/min, room temperature (20 ± 2°C)
# [3] = target: murine CIZ1 fragment C181 (mouse) (UniProt Q8VEH2); assay: as above
# [4] = target: the molecule itself; assay: as above
molecule,measurement,setting,value
Xist repeat E RNA probe,binding signal (% probe shifted at 5 µM protein),[1],99
human CIZ1-C179Δtail (from UniProt Q9ULV3-1 720-860) (domain or fragment),stoichiometry N,[2],2
murine CIZ1 fragment C181 (from UniProt Q8VEH2 665-845) (domain or fragment),stoichiometry N,[3],2
"human CIZ1-C179 (domain or fragment, UniProt Q9ULV3-1 720-898, looked up, the terminal residue is printed as Thr 898; also called hC179; C179WT; source: E. coli BL21 RP CodonPlus, purified (GSTrap, on-column PreScission cleavage, Superdex 200); not shown: GST, N-terminal, cleaved) EKEIAGQDEDHFITVDAVGCFEGDEEEEEDDEDEEEIEVEEELCKQVRSRDISREEWKGSETYSPNTAYGVDFLVPVMGYICRICHKFYHSNSGAQLSHCKSLGHFENLQKYKAAKNPSPTTRPVSRRCAINARNALTALFTSSGRPPSQPNTQDKTPSKVTARPSQPPLPRRSTRLKT",stoichiometry N,[4],2
